T1: recombinant purified human IL-12 p70 (human, UniProt P29459 23-219)
T1 construct: Disulfide-linked heterodimer of p35 and p40; also called hIL-12; Hu IL-12
T1 sequence 1: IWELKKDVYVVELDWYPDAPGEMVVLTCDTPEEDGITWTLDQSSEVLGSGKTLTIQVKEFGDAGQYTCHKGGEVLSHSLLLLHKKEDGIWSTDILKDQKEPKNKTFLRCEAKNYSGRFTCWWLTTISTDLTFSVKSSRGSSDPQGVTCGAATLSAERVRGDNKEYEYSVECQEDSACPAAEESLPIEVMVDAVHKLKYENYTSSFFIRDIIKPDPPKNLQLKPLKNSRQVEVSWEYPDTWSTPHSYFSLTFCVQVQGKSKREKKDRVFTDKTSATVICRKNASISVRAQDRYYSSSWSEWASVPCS
T1 sequence 2: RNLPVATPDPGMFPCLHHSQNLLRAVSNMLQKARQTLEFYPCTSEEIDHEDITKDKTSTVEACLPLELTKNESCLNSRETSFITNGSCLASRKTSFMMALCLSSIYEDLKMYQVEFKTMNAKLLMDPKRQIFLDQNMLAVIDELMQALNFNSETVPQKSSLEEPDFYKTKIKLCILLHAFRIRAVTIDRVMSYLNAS

T2: recombinant purified mouse IL-12 (Peprotech) (mouse, UniProt P43432 23-335; P43431 23-215)
T2 construct: Bought reagent; also called mu IL-12; murine IL-12
T2 sequence (looked up) 1: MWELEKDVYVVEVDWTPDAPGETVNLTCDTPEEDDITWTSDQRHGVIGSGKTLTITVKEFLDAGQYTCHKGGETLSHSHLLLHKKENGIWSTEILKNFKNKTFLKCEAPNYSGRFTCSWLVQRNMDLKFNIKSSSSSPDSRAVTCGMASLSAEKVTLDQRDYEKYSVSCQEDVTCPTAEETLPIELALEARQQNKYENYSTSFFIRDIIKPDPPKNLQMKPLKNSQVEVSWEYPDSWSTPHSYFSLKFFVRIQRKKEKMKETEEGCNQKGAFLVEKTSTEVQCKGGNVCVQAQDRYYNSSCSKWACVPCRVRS
T2 sequence (looked up) 2: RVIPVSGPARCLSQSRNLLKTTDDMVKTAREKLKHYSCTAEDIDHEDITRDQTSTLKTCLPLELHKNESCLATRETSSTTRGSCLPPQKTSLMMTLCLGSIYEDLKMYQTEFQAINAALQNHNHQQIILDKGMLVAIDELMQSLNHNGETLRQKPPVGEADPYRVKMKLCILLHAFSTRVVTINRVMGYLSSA

T3: recombinant purified cyno IL-12 p70 (cynomolgus monkey)
T3 chain 1: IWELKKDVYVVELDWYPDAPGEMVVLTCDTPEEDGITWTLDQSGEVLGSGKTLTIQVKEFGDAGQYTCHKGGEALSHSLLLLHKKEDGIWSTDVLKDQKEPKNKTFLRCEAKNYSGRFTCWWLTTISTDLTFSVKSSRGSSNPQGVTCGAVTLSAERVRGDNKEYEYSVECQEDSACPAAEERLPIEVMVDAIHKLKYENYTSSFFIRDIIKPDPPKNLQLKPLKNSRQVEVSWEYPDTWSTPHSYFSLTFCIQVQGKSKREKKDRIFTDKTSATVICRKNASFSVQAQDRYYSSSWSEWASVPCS
T3 chain 2: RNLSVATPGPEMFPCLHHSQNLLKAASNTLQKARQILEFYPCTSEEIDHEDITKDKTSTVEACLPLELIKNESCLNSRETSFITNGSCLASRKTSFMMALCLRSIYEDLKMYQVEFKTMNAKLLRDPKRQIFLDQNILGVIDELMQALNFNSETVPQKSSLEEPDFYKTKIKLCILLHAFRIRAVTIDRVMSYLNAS


Tests used:
[1] = biological target: T1, recombinant purified human IL-12 p70; assay: SPR (Biacore), mAb captured on anti-mouse IgG Fc, IL-12 p70 as analyte
Procedure: The BIACORE assay (Biacore, Inc, Piscataway, N.J.) determines the affinity of antibodies with kinetic measurements of on-, off-rate constants. Binding of antibodies to recombinant purified human IL-12 p70 or recombinant purified human IL-12 p40 were determined by surface plasmon resonance-based measurements with a Biacore® 3000 instrument (Biacore® AB, Uppsala, Sweden) using running HBS-EP (10 mM HEPES [pH 7.4], 150 mM NaCl, 3 mM EDTA, and 0.005% surfactant P20) at 25° C. All chemicals were obtained from Biacore® AB (Uppsala, Sweden) or otherwise from a different source as described in the text. Approximately 5000 RU of goat anti-mouse IgG, (Fcγ), fragment specific polyclonal antibody (Pierce Biotechnology Inc, Rockford, Ill.) diluted in 10 mM sodium acetate (pH 4.5) was directly immobilized across a CM5 research grade biosensor chip using a standard amine coupling kit according to manufacturer's instructions and procedures at 25 μg/ml. Unreacted moieties on the biosensor surface were blocked with ethanolamine. Modified carboxymethyl dextran surface in flowcell 2 and 4 was used as a reaction surface. Unmodified carboxymethyl dextran without goat anti-mouse IgG in flow cell 1 and 3 was used as the reference surface. For kinetic analysis, rate equations derived from the 1:1 Langmuir binding model were fitted simultaneously to association and dissociation phases of all eight injections (using global fit analysis) with the use of Biaevaluation 4.0.1 software. Purified antibodies were diluted in HEPES-buffered saline for capture across goat anti-mouse IgG specific reaction surfaces. Mouse antibodies to be captured as a ligand (25 μg/ml) were injected over reaction matrices at a flow rate of 5 μl/min. The association and dissociation rate constants, kₒₙ (unit M⁻¹ s⁻¹) and koff (unit s⁻¹) were determined under a continuous flow rate of 25 μl/min. Rate constants were derived by making kinetic binding measurements at ten different antigen concentrations ranging from 10-200 nM. The equilibrium dissociation constant (unit M) of the reaction between mouse antibodies and recombinant purified human IL-12 p70 or recombinant purified human IL-12 p40 was then calculated from the kinetic rate constants by the following formula: KD=koff/kₒₙ. Binding is recorded as a function of time and kinetic rate constants are calculated.

[2] = biological target: T1, recombinant purified human IL-12 p70; assay: cell-based or functional assay
[3] = biological target: T2, recombinant purified mouse IL-12 …; assay: direct ELISA, plate coated with 5 ug/ml recombinant mouse IL-12
Procedure: To determine whether the ten monoclonal antibodies described above recognize murine IL-12, two ELISAs were set up. First, a direct ELISA was set up by directly coating ELISA plates with 5 ug/ml of recombinant purified mouse IL-12 (Peprotech). Murine-anti-human IL-12 p40 mAbs were prepared at various concentrations ranging from 3 to 200 ng/ml in PBS containing 0.1% BSA (Sigma, St. Louis, Mo.). 50 μl of each antibody dilution was added to the coated ELISA plate and incubated for 1 hour at room temperature. Wells were washed 3 times with PBS containing 0.05% Tween-20. Anti-mouse IgG-HRP antibody (R&D #HAF007, Minneapolis, Minn.) was diluted 1:2000 in PBS containing 0.1% BSA; 50 ul/well was added and the plates incubated for 1 hour at room temperature. Fifty microliters of TMB solution (Sigma # T0440, St. Louis, Mo.) was added to each well and incubated for 10 minutes at room temperature. The reaction was stopped by addition of 2N sulphuric acid. Plates were read spectrophotmetrically at a wavelength of 450 nm.

[4] = biological target: T3, recombinant purified cyno IL-12 p70; assay: cell-based or functional assay

Row | Binder | Kd [1] | koff [1] | kon [1] | Average IC50 (nM) Human IL-12, PHA blast IFN-γ assay [2] | binding result [3] | Average IC50 (nM) Cyno IL-12, PHA blast IFN-γ assay [4]
1 | murine anti-human IL-12p40 monoclonal antibody 3A11 (antibody, V domains shown, Murine mAb) VH: EVQLQQSGADLEKPGASVKLSCTASGFNIKDTFMHWVKQRPEQGLEWIGRIDPANGHTKYDPKFQGKATITADTSSNTAYLQLSSLTSEDTAVYYCARWGQFGLLWNAMDYWGQGTSVTVSS VL: not shown | 1.2 nM | 0.00019 s⁻¹ | 150000 M⁻¹ s⁻¹ | 3.4 nM | no binding (tested: 3 to 200 ng/ml mAb) | 
2 | murine anti-human IL-12p40 monoclonal antibody 7G3 (antibody, V domains shown, Murine mAb) VH: EVQLQQSGAEFVRSGASVKLSCTASGLNIKDYYIHWVKQRPEQVLDWIGWIDPENGYSEYAPRFQDKATMTADTSSNTAYLHLSSLTSEDTAVYYCNPGELARYFDYWGQGTTLTVSS VL: DIVLSQSPATLSVTPGDSVSLSCRASQSISKNLHWYQQKSHESPRLLIKYTSQSISGIPSRFSGSGSGTDFTLSINSVETEDFGMYFCQQSISWPLTFGAGTKLELKR | 0.27 nM | 0.00028 s⁻¹ | 1.1e+06 M⁻¹ s⁻¹ | 0.047 nM | no binding (tested: 3 to 200 ng/ml mAb) | > 20 nM
3 | murine anti-human IL-12p40 monoclonal antibody 1A6 (antibody, V domains shown, Murine mAb) VH: QVTLKESGPGILKPSQTLSLTCSFSGFSLSTSGMGVSWIRQPSGKGLEWLAHIWWDGDNYYNPSLKSQLTISKDTSRNQVFLRIATVDTADTATYYCARRTRVNYAMDYWGQGTSVTVSS VL: SVVMTQTPKFLLVSAGDRVTITCKASQSVSNDVAWFQQKPGQSPKLLIYYASNRYTGVPDRFTGSGYGTDFTFTISTVQAEDLAVYFCQQDYNSPWTFGGGTKLEIKR | 0.23 nM | 3.5e-05 s⁻¹ | 150000 M⁻¹ s⁻¹ | 0.052 nM | no binding (tested: 3 to 200 ng/ml mAb) | 0.044 nM
4 | murine anti-human IL-12p40 monoclonal antibody 5E8 (antibody, V domains shown, Murine mAb) VH: QIQLVQSGPELKKPGETVKISCKASGYSFTDYSMHWVKQAPGKGLKWMDWINTETGEPTYADDFKGRFAFSLETSASTAYLQINNLKNEDTATYFCSRRRYRAFDYWGQGTTLTVSS VL: SIVMTQSPKFLLVSAGDRVTITCKASQSVSNDVAWYQQKLGQSPKLLIYYASNRYTGVPDRFTGSGYGTDFTFTINTVQAEDLAVYFCQQDYTSPYTFGGGTKLEIQR | 4 nM | 0.0023 s⁻¹ | 570000 M⁻¹ s⁻¹ | 12 nM | no binding (tested: 3 to 200 ng/ml mAb) | 

Continued by falling Kd [1], values first:

Row | Kd [1] | koff [1] | kon [1] | Average IC50 (nM) Human IL-12, PHA blast IFN-γ assay [2] | binding result [3] | Average IC50 (nM) Cyno IL-12, PHA blast IFN-γ assay [4] | Binder
5 | 0.25 nM | 9.9e-05 s⁻¹ | 430000 M⁻¹ s⁻¹ | 0.69 nM | no binding (tested: 3 to 200 ng/ml mAb) | 1.6 nM | murine anti-human IL-12p40 monoclonal antibody 1H6 (antibody, V domains shown, Murine mAb) VH: EVKLVESGGGLVQPGGSRKLSCAASGFTFSDYGMVWVRQAPGKGLEWVAYISSGSSTIHYADTMKGRFTISRDNPKNTLFLQMSSLRSEDTAMYYCARRHYYAMDYWGQGTSVTVSS VL: SFVMTQTPKFLLVSAGDRVTITCKASQSVSNDVAWYQQKPGQSPKLLIYYASNRYTGVPDRFTGTGYGTDFTFTISTVQAEDLAVYFCQQDYTSPFTFGSGTKLEIKR
6 | 0.12 nM | 2.9e-05 s⁻¹ | 250000 M⁻¹ s⁻¹ | 0.031 nM | no binding (tested: 3 to 200 ng/ml mAb) | 0.078 nM | murine anti-human IL-12p40 monoclonal antibody 1D4 (antibody, V domains shown, Murine mAb purified from hybridoma supernatant) VH: QVTLKESGPGILQPSQTLSLTCSFSGFSLRKSVMGVSWIRQPSGKGLEWLAHIYWDDDKYYNPSLKSRLTISKDPSRNQVFLKITSVDTADAATYYCTRRGIRSAMDYWGQGTSVTVSS VL: SVVMTQTPKFLLVSAGDRVTITCKASQSVSNDVAWYQQKPGQSPKLLIYYASNRYTGVPDRFTGSGYGTDFTFIISTVRAEDLAVYFCQQDYNSPWTFGGGTKLEIKR
7 | 0.1 nM | 1.4e-05 s⁻¹ | 130000 M⁻¹ s⁻¹ | 0.039 nM | no binding (tested: 3 to 200 ng/ml mAb) | 0.028 nM | murine anti-human IL-12p40 monoclonal antibody 4B4 (antibody, V domains shown, Murine mAb) VH: QVTLKESGPGILKPSQTLSLTCSLSGFSLSTSGMGVSWIRQPSGKGLEWLAHIWWDGDSYSNPSLRSRLTISRDTSRNQVFLRIATVDTADTATYYCARRTRVNYAMDYWGQGTSVTVSS VL: SVVMTQTPKFLLVSAGDRVTMTCKASQSVSNDVAWFQQKPGQSPKLLIYYASNRYTGVPDRFTGSGYGTDFTFTISTVQAEDLAVYFCQQDYNSPWTFGGGTKLEIKR
8 | 0.044 nM | 2.3e-05 s⁻¹ | 510000 M⁻¹ s⁻¹ | 0.31 nM | no binding (tested: 3 to 200 ng/ml mAb) | 1.4 nM | murine anti-human IL-12p40 monoclonal antibody 1D8 (antibody, V domains shown, Murine mAb) VH: QVQLQQSGAELMKPGASVKISCKATGYTFSSYWIEWVKQRPGHGLEWIGDILPGSGSTNYNEKFKDKATFTADTSFNTAYMQLSSLTSEDSAVYYCATRRFRGLDYWGQGTTLTVSS VL: SIVMTQTPKFLLVSAGDRVTITCKASQSVSNDVAWYQQKSGQSPKLLIYYASNRYTGVPDRFTGSGYGTDFTFTISTVQPEDLAVYFCQQDYTSPFTFGSGTKLEIKR
